Numbering of substitutions follows the chain as printed. “And” between values parts separate entries of the source, which are not always exact repeats. Identical values can stand only once.
How the values were obtained:
SNAP-GAL2R L169^ECL2A [1] = biological target: T1, SNAP-GAL2R L169^ECL2A (human, UniProt O43603 1-387, L169^ECL2A, Lumi4-Tb on the SNAP tag)
T1 construct: also called L169A; source: HEK293, transfected, on cells; not shown: SNAP tag, N-terminal, kept
T1 sequence (looked up): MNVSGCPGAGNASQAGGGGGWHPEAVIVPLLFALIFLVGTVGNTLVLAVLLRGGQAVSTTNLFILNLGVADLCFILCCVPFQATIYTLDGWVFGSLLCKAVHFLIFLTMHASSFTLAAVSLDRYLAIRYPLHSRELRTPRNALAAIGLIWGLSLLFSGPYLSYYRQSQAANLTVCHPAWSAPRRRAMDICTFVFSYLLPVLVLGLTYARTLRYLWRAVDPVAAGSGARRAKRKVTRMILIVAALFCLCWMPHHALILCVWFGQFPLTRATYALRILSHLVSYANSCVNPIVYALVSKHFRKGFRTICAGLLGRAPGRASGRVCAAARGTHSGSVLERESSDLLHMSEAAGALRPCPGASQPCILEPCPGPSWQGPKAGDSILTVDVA

SNAP-GAL2R A170^ECL2S [2] = biological target: T2, SNAP-GAL2R A170^ECL2S (human, UniProt O43603 1-387, A170^ECL2S, Lumi4-Tb on the SNAP tag)
T2 construct: also called A170S; source: HEK293, transfected, on cells; not shown: SNAP tag, N-terminal, kept
T2 sequence (looked up): T1 sequence (looked up) with A169L, A170S

SNAP-GAL2R L172^ECL2A [3] = biological target: T3, SNAP-GAL2R L172^ECL2A (human, UniProt O43603 1-387, L172^ECL2A, Lumi4-Tb on the SNAP tag)
T3 construct: also called L172A; source: HEK293, transfected, on cells; not shown: SNAP tag, N-terminal, kept
T3 sequence (looked up): T1 sequence (looked up) with A169L, L172A

SNAP-GAL2R R184^5.35A = biological target: T4, SNAP-GAL2R R184^5.35A (human, UniProt O43603 1-387, R184^5.35A, Lumi4-Tb on the SNAP tag)
T4 construct: also called R184A; source: HEK293, transfected, on cells; not shown: SNAP tag, N-terminal, kept
T4 sequence (looked up): T1 sequence (looked up) with A169L, R184A

SNAP-GAL2R L255^6.54A = biological target: T5, SNAP-GAL2R L255^6.54A (human, UniProt O43603 1-387, L255^6.54A, Lumi4-Tb on the SNAP tag)
T5 construct: also called L255A; source: HEK293, transfected, on cells; not shown: SNAP tag, N-terminal, kept
T5 sequence (looked up): T1 sequence (looked up) with A169L, L255A

SNAP-GAL2R V259^6.58A [4] = biological target: T6, SNAP-GAL2R V259^6.58A (human, UniProt O43603 1-387, V259^6.58A, Lumi4-Tb on the SNAP tag)
T6 construct: also called V259A; source: HEK293, transfected, on cells; not shown: SNAP tag, N-terminal, kept
T6 sequence (looked up): T1 sequence (looked up) with A169L, V259A

SNAP-GAL2R T267^7.28A = biological target: T7, SNAP-GAL2R T267^7.28A (human, UniProt O43603 1-387, T267^7.28A, Lumi4-Tb on the SNAP tag)
T7 construct: also called T267A; source: HEK293, transfected, on cells; not shown: SNAP tag, N-terminal, kept
T7 sequence (looked up): T1 sequence (looked up) with A169L, T267A

[5] = biological target: SNAP-GAL2R F264^ECL3A (human) (UniProt O43603)
[6] = biological target: SNAP-GAL2R I85^2.64A (human) (UniProt O43603)
[7] = biological target: SNAP-GAL2R L266^ECL3A (human) (UniProt O43603)
[8] = biological target: SNAP-GAL2R Q82^2.61A (human) (UniProt O43603)
[9] = biological target: SNAP-GAL2R Y271^7.32A (human) (UniProt O43603)
[10] = biological target: SNAP-GAL2R Y86^2.65A (human) (UniProt O43603)
SNAP-GAL2R L169^ECL2A [11] = biological target: T1, SNAP-GAL2R L169^ECL2A; remark: listed apart in the source
SNAP-GAL2R A170^ECL2S [12] = biological target: T2, SNAP-GAL2R A170^ECL2S; remark: listed apart in the source
SNAP-GAL2R L172^ECL2A [13] = biological target: T3, SNAP-GAL2R L172^ECL2A; remark: listed apart in the source
SNAP-GAL2R I256^6.55A = biological target: T8, SNAP-GAL2R I256^6.55A (human, UniProt O43603 1-387, I256^6.55A, Lumi4-Tb on the SNAP tag)
T8 construct: also called I256A; source: HEK293, transfected, on cells; not shown: SNAP tag, N-terminal, kept
T8 sequence (looked up): T1 sequence (looked up) with A169L, I256A

SNAP-GAL2R V259^6.58A [14] = biological target: T6, SNAP-GAL2R V259^6.58A; remark: listed apart in the source
[15] = biological target: SNAP-GAL2R F264^ECL3A (human) (UniProt O43603); remark: listed apart in the source
[16] = biological target: SNAP-GAL2R L266^ECL3A (human) (UniProt O43603); remark: listed apart in the source
[17] = biological target: SNAP-GAL2R Y271^7.32A (human) (UniProt O43603); remark: listed apart in the source

In the case of “galanin (full length, unlabeled) (peptide)”, the calcium assay EC50 (galanin; HEK293/Gα16 cells) (SNAP-GAL2R L169^ECL2A [1]) is reported as 93.5 nM and 82.5 nM and 22.5 nM, the calcium assay EC50 (galanin; HEK293/Gα16 cells) (SNAP-GAL2R A170^ECL2S [2]) is reported as 10 nM and 8.08 nM and 12.4 nM and the calcium assay EC50 (galanin; HEK293/Gα16 cells) (SNAP-GAL2R L172^ECL2A [3]) is reported as 59 nM and 71.7 nM and 55.4 nM. For the same substance, the calcium assay EC50 (galanin; HEK293/Gα16 cells) (SNAP-GAL2R R184^5.35A) was 138 nM and 115 nM and 58 nM, the calcium assay EC50 (galanin; HEK293/Gα16 cells) (SNAP-GAL2R L255^6.54A) was 153 nM and 293 nM and the calcium assay EC50 (galanin; HEK293/Gα16 cells) (SNAP-GAL2R V259^6.58A [4]) was 290 nM and 275 nM and 205 nM. The calcium assay EC50 (galanin; HEK293/Gα16 cells) (SNAP-GAL2R T267^7.28A) was 3150 nM and 2330 nM and 1260 nM, the calcium assay EC50 (galanin; HEK293/Gα16 cells) [5] was 1760 nM and 2390 nM and 3590 nM and the calcium assay EC50 (galanin; HEK293/Gα16 cells) [6] was 5200 nM and 4440 nM and 1380 nM. The calcium assay EC50 (galanin; HEK293/Gα16 cells) [7] was 27900 nM and 7140 nM, the calcium assay EC50 (galanin; HEK293/Gα16 cells) [8] was 4680 nM and 4340 nM and 2980 nM and the calcium assay EC50 (galanin; HEK293/Gα16 cells) [9] was 515 nM and 678 nM and 969 nM. The calcium assay EC50 (galanin; HEK293/Gα16 cells) [10] was 3230 nM and 2210 nM.

In the case of “spexin (mature, 14 amino acids) (peptide)”, the calcium assay EC50 (spexin) (SNAP-GAL2R L169^ECL2A [11]) is reported as 7170 nM and 5140 nM and 1830 nM, the calcium assay EC50 (spexin) (SNAP-GAL2R A170^ECL2S [12]) is reported as 95.4 nM and 151 nM (2×) and the calcium assay EC50 (spexin) (SNAP-GAL2R L172^ECL2A [13]) is reported as 3120 nM and 10800 nM and 12100 nM. The calcium assay EC50 (spexin) (SNAP-GAL2R I256^6.55A) was 674 nM and 438 nM and 924 nM, the calcium assay EC50 (spexin) (SNAP-GAL2R V259^6.58A [14]) was 1330 nM and 6620 nM and 6150 nM and the calcium assay EC50 (spexin) [15] was over 100000 nM. For the same substance, the calcium assay EC50 (spexin) [16] was 25100 nM and 15300 nM and 12000 nM and the calcium assay EC50 (spexin) [17] was 5960 nM and 1580 nM and 752 nM.

From paper PMC8924211 (Nature Communications, 2022)
